Measurements taken from patent US20190194324A1 (published 2019).

B1: LAG3 (protein)
chain: MWEAQFLGLLFLQPLWVAPVKPLQPGAEVPVVWAQEGAPAQLPCSPTIPLQDLSLLRRAGVTWQHQPDSGPPAAAPGHPLAPGPHPAAPSSWGPRPRRYTVLSVGPGGLRSGRLPLQPRVQLDERGRQRGDFSLWLRPARRADAGEYRAAVHLRDRALSCRLRLRLGQASMTASPPGSLRASDWVILNCSFSRPDRPASVHWFRNRGQGRVPVRESPHHHLAESFLFLPQVSPMDSGPWGCILTYRDGFNVSIMYNLTVLGLEPPTPLTVYAGAGSRVGLPCRLPAGVGTRSFLTAKWTPPGGGPDLLVTGDNGDFTLRLEDVSQAQAGTYTCHIHLQEQQLNATVTLAIITVTPKSFGSPGSLGKLLCEVTPVSGQERFVWSSLDTPSQRSFSGPWLEAQEAQLLSQPWQCQLYQGERLLGAAVYFTELSSPGAQRSGRAPGALPAGHLLLFLILGVLSLLLLVTGAFGFHLWRRQWRPRRFSALEQGIHPPQAQSKIEELEQEPEPEPEPEPEPEPEPEPEQL
B2: LAG3 overexpressed in transfected cells (SH-SY5Y; HEK293FT) (receptor)
chain: LQPGAEVPVVWAQEGAPAQLPCSPTIPLQDLSLLRRAGVTWQHQPDSGPPAAAPGHPLAPGPHPAAPSSWGPRPRRYTVLSVGPGGLRSGRLPLQPRVQLDERGRQRGDFSLWLRPARRADAGEYRAAVHLRDRALSCRLRLRLGQASMTASPPGSLRASDWVILNCSFSRPDRPASVHWFRNRGQGRVPVRESPHHHLAESFLFLPQVSPMDSGPWGCILTYRDGFNVSIMYNLTVLGLEPPTPLTVYAGAGSRVGLPCRLPAGVGTRSFLTAKWTPPGGGPDLLVTGDNGDFTLRLEDVSQAQAGTYTCHIHLQEQQLNATVTLAIITVTPKSFGSPGSLGKLLCEVTPVSGQERFVWSSLDTPSQRSFSGPWLEAQEAQLLSQPWQCQLYQGERLLGAAVYFTELSSPGAQRSGRAPGALPAGHLLLFLILGVLSLLLLVTGAFGFHLWRRQWRPRRFSALEQGIHPPQAQSKIEELEQEPEPEPEPEPEPEPEPEPEQL

Tests used:
[1] = target: T1, α-syn-biotin monomer (mouse, UniProt O55042 1-140); assay: cell surface binding (SH-SY5Y)
[2] = target: α-syn-biotin PFF (biotin-labelled α-synuclein pre-formed fibrils) (mouse, UniProt O55042 1-140); assay: cell surface binding (SH-SY5Y)
[3] = target: T1, α-syn-biotin monomer; assay: cell surface binding (SH-SY5Y); LAG3* (no Triton)

Binder	Kd [1] [nM]	Kd [2] [nM]	Kd [3] [nM]
B1	> 3000	77	
B2			> 3000
